Laboratory results: patent publication US20130315928A1 (published 2013)
Substitutions are numbered along the chain they refer to.

B1: monoclonal antibody 9A4 A7 D3 (hybridoma CNCM I-4333) (antibody, V domains shown)
VH: EVQLQESGAELVRPGTSVKISCKASGYTFTNYWLGWVKQRPGHGLEWIGDIYPGGGYTNYNEKFKGKATLTADTSSSTAYMQLSSLTSEDSAVYFCARTPLYGSSYGGFAYWGQGTLVTVSA
VL: KTQTTSSLSASLGDRVTISCSASQGISNYLNWYQQKPDGTVKLLIYYTSSLHSGVPSRFSGSGSGTDYSLTISNLEPEDIATYYCQQYSKLPWTFGGGTKLEIK
notes: Hybridoma antibody raised against ovine LH; The VL as determined begins KTQTTSS; also called MAb D3; IgM D3
B2: monoclonal antibody 9A4 D4 B6 (hybridoma CNCM I-4334) (antibody, V domains shown)
VH: B1 VH with E6Q
VL: DIVMTQATSSLSASLGDRVTISCSASQGISNYLNWYQQKPDGTVKLLIYYTSSLHSGVPSRFSGSGSGTDYSLTISNLEPEDIATYYCQQYSKLPWTFGGGTKLEIK
notes: Hybridoma antibody raised against ovine LH; also called MAb B6; IgM B6
B3: monoclonal antibody 1A6 C4 G11 (hybridoma CNCM I-4332) (antibody, V domains shown)
VH: B1 VH with Q3K, E6Q
VL: B2 VL with V3Q, A7T
notes: Hybridoma antibody raised against ovine LH; also called MAb G11; IgM G11

Columns and labels:
[1] = biological target: T1, ovine luteinizing hormone (ovine, UniProt P01218 25-120; P01231 21-141); assay: cell-based or functional assay
[2] = biological target: T2, ovine follicle-stimulating hormone (ovine, UniProt P01218 25-120; P01227 20-129); assay: cell-based or functional assay
[3] = biological target: T3, equine choriogonadotropin (eCG) or PMSG (equine, UniProt P01220 25-120; P08751 21-169); assay: ELISA on adsorbed commercial eCG
T3 construct: They are written as one protein; also called commercial eCG (Synchro Part, CEVA); purified eCG (6000 IU/mg)
T3 sequence (P01220 25-120 limits assumed, chain 1 of 2): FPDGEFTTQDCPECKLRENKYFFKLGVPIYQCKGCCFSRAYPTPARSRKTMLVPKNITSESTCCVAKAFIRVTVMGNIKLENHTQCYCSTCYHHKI
T3 sequence (P08751 21-169 limits assumed, chain 2 of 2): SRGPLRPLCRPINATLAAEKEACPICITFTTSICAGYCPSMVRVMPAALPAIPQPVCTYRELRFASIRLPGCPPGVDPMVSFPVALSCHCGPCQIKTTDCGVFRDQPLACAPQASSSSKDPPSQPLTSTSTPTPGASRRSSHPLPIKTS
Procedure: (§1) After washing five times, a secondary antibody (peroxidase-coupled mouse anti-IgM, Jackson Laboratories) was incubated for 1 h at 37° C. (100 μl/well). After washing five times, the peroxidase is developed with TMB (100 μl/well), for 30 min at room temperature and then stopped with 1M H₂SO₄ (50 μl/well).
(§2) In the same way, the antibodies were evaluated on the commercial eCG (Synchro Part, CEVA, Libourne, France) used in treatments for induction of ovulation in sheep and goats. An isotypic control (IgM directed against another type of antigen very remote from the gonadotropic hormones). Each antibody was incubated at a concentration of 10 μg/ml and 1 μg/ml.

[4] = biological target: T3, equine choriogonadotropin (eCG) or PMSG; assay: ELISA on commercial eCG, antibody at 1 µg/ml
Procedure: as §1, §2

[5] = biological target: T3, equine choriogonadotropin (eCG) or PMSG; assay: ELISA on commercial eCG, antibody at 10 µg/ml
Procedure: as §1, §2

[6] = biological target: porcine luteinizing hormone (porcine, UniProt P01219 25-120; P01232 21-141); assay: ELISA, hormone adsorbed at 2 µg/ml, anti-IgM peroxidase; relative to oLH
Procedure: as §1

[7] = biological target: bovine luteinizing hormone (bovine, UniProt P01217 25-120; P04651 21-141); assay: as above
Procedure: as §1

[8] = biological target: T4, human chorionic gonadotropin (human, UniProt P01215 25-116; P0DN86 21-165); assay: as above
T4 construct: Alpha/beta heterodimer; also called hCG
T4 sequence (P01215 25-116, chain 1 of 2, other chains not shown): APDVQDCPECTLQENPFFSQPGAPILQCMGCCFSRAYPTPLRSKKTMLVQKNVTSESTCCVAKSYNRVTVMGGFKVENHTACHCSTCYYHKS
Procedure: as §1

[9] = biological target: porcine follicle-stimulating hormone (porcine, UniProt P01219 25-120; P01228 21-129); assay: ELISA, hormone adsorbed at 2 µg/ml, anti-IgM peroxidase; relative to oFSH
Procedure: as §1

[10] = biological target: bovine follicle-stimulating hormone (bovine, UniProt P01217 25-120; P04837 21-129); assay: as above
Procedure: as §1

[11] = biological target: T5, human follicle-stimulating hormone (human, UniProt P01215 25-116; P01225 19-129); assay: as above
T5 construct: Alpha/beta heterodimer; also called hFSH; human FSH
T5 sequence (P01215 25-116, chain 1 of 2): as the sequence (P01215 25-116, chain 1 of 2, other chains not shown) above
T5 sequence (P01225 19-129, chain 2 of 2): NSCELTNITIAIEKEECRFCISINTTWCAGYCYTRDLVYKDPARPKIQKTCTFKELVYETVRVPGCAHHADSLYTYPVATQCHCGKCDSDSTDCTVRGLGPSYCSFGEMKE
Procedure: as §1

[12] = biological target: T1, ovine luteinizing hormone; assay: ELISA, hormone adsorbed at 2 µg/ml, MAb at 0.1-1-10 µg/ml, anti-IgM peroxidase; oLH is the 100% reference
[13] = biological target: T2, ovine follicle-stimulating hormone; assay: ELISA, hormone adsorbed at 2 µg/ml, MAb at 0.1-1-10 µg/ml, anti-IgM peroxidase; oFSH is the 100% reference
[14] = biological target: T3, equine choriogonadotropin (eCG) or PMSG; assay: ELISA on purified eCG (6000 IU/mg)

Binder | potentiating effect on cAMP secretion (in vitro bioassay) [1] [%] | potentiating effect on cAMP secretion (in vitro bioassay) [2] [%] | binding result [3] | OD [4] [OD] | OD [5] [OD] | percentage of cross reaction (OD hormone tested / OD ovine hormone x 100) [6] [%] | percentage of cross reaction (OD hormone tested / OD ovine hormone x 100) [7] [%] | percentage of cross reaction (OD hormone tested / OD ovine hormone x 100) [8] [%] | percentage of cross reaction (OD hormone tested / OD ovine hormone x 100) [9] [%] | percentage of cross reaction (OD hormone tested / OD ovine hormone x 100) [10] [%] | percentage of cross reaction (OD hormone tested / OD ovine hormone x 100) [11] [%] | percentage of cross reaction (OD hormone tested / OD ovine hormone x 100) [12] [%] | percentage of cross reaction (OD hormone tested / OD ovine hormone x 100) [13] [%] | binding result [14]
B1 | 150 | 150 | no binding (tested: 10 µg/ml and 1 µg/ml) | 0.102 | 0.091 | 170 | 121 | 72 | 100 | 460 | 100 | 100 | 100 | 
B2 | 150 | 150 | no binding (tested: 10 µg/ml and 1 µg/ml) | 0.078 | 0.088 | 168 | 122 | 97 | 137 | 430 | 100 | 100 | 100 | 
B3 |  |  |  | 0.088 | 0.09 | 140 | 100 | 68 | 230 | 380 | 113 | 100 | 100 | no binding
